By Kd is commonly meant the concentration at which binding is half-saturated.

This assay concerns the target T1, human transmembrane-4 L six family member-1 (TM4SF1), full-length (human, UniProt P30408 1-202, N-glycosylated at N129 and N159 (ECL2)).
T1 construct: whole, on cells; Four-transmembrane plasma membrane glycoprotein; It was tested on cells (HUVEC, transduced HDF and HEMn), in tissue sections and on immunoblots; also called FL-TM4SF1; FL
T1 sequence (looked up): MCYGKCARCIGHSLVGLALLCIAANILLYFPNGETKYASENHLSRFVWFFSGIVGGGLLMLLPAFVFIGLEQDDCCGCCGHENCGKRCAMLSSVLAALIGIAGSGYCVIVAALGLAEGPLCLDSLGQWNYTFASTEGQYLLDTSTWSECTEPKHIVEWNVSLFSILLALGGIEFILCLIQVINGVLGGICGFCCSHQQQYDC
In words: method not stated.

B1: 8G4 antibody (anti-TM4SF1 mouse monoclonal antibody produced by hybridoma mouse cell line 8G4-5-13-13F, PTA-120523) (antibody, V domains shown)
VH: EVILVESGGGLVKPGGSLKLSCAASGFTFSSFAMSWVRQTPEKRLEWVATISSGSIYIYYTDGVKGRFTISRDNAKNTVHLQMSSLRSEDTAMYYCARRGIYYGYDGYAMDYWGQGTSVTVSS
VL: AVVMTQTPLSLPVSLGDQASISCRSSQSLVHSNGNTYLHWYMQKPGQSPKVLIYKVSNRFSGVPDRFSGSGSGTDFTLKISRVEADDLGIYFCSQSTHIPLAFGAGTKLELK
notes: Mouse monoclonal antibody from a hybridoma; both have the length of variable domains; also called anti-TM4SF1 antibody 8G4
In turn, B1 gave a Kd of about 1 nM.

These data come from US20190062425A1 (BETH ISRAEL DEACONESS MEDICAL CENTER, published 2019).
